Experimental data: article doi:10.1101/2025.03.01.640964 (bioRxiv, 2025)
Ends that are not written are not given here. * marks the point of attachment. Biotin = O=C1N[C@H]2[C@H](CS[C@H]2CCCCC(=O)*)N1

Assays:
SteC_(210-429) WT = SteC_(210-429) WT (Salmonella Typhimurium strain 14028s, UniProt D0ZIB5 210-429); assay: BLI; […] (1 ug/ml) […] (SA) biosensors; […]; Octet Red, 25 °C; 50 mM HEPES pH 7.5, 150 mM NaCl, 10 mM MgCl2, 0.5 mM TCEP, 0.05% Tween-20; […]; settings: both partners purified
SteC_(210-429;K256H) = SteC_(210-429;K256H) (Salmonella Typhimurium strain 14028s, UniProt D0ZIB5 210-429, K256H); assay: as above; settings: both partners purified

## Biotin-KGPPSSVPKSRHLTIKLTPAHSRK (peptide, UniProt O95466 190-213, looked up) [N-terminally biotinylated FMNL1 peptide]
SteC_(210-429) WT
  Kd: 7.9 µM
SteC_(210-429;K256H)
  Kd: 22 µM
